According to the DeepSol protein solubility set:

Experiment: soluble on expression in E. coli; label from the status in PepcDB or PDB records

Sequence | soluble on expression in E. coli
MIPLFNFAIKQFMNQRMKNIRGFMEHPIETQQRVLKNLLQQAALTEWGKTHGYKDIQSNEQFAQQVPVSTYETFYPWIERCLKGEQQILWQSDIDWFSKSSGTTNAKSKFIPVSKESLKDCHYKGGMDLLTLYFDNAPESKLFQGKSLAVGGSCSPNPHRDNSKIGDISAVIMANLPTWAQYARTPSIQTALMNEWEAKIDKLAEECSKENVTNLSGVPTWAVLLLEYMLEKSGKENMLEIWPHFECFFHGAVSFHPYKTAFQKFFPSDKVRYMETYNASEGFFGVQDDLSRDDLLLYLDHGIYYEFIPIDEIDAEFPKTISLEQVQLNEAYALVISTNSGLWRYNVGDVVRFTSITPYRIKITGRTKHYINVFGEELMVENAEMAVSKACEATNAVLANFTAGPIYFNNENKGGHEWIIEFETAPGDKDRFTQLLDQFLKELNSDYEAKRYKDMALLLPTIHFVPEGTFYKWLKLKGKLGGQHKVPRLSNNREYLEDILTKCL | not soluble
MTEITHRTKTRPVKVGNLTIGGNNEVVVQSMTTTKTHDVEATVAEIKRLEEAGCQVVRVACPDMRAAEAIPAIKKQISIPLVVDIHFDYKLALKAIEGGADKIRINPGNIGKRHKVEAVVKAAKEKGIPIRIGVNAGSLEKRILDKYGYPTADGMVESALHHIKILEDLDFHDIIVSMKASDVNLAIEAYEKAAKAFDYPLHLGITESGTLFAGTVKSAAGLGAILNMGIGNTVRVSLSADPVEEVKVARELLKSFGLASNAATLISCPTCGRIEIDLISIANEMEEYISKIRAPIKVAVLGCAVNGPGEAREADIGIAGARGEGLLFRKGEIVRKVPEETMVEELKKEIDKIAEEYFAKQKELEKA | not soluble
MGSDKIHHHHHHMEWLEQLLGKEWSLVPAGGVTGDAYIAQNGQQKLFLKRNTSPFLAVLSAEGIVPKLLWTRRVTNGDVISAQKWLPGQKLEPEDMKLERVAKLLKKIHSSKALVQMIQRLGKQPLHAQELLQQLQLVLRGDIRDEETIQQGLQYLMDSLKDIEYNEFVVCHCDVNHNNWLLSDEDELFLIDWDGAVIADPALDLGMLLYWYIPRQEWSEWLGYYDIEMDESLLKRMRWYVIAQTILSIQWHTTKKQQAEAEYWHQYLQQLLASE | not soluble
MFSGKRLKKRRITLGYSQSELADKLHINRSSYFNWENEKTKPNQSNLKQLAILLDVPETYFESEYKIVNTYLQLSLQNQEKVEKYAEELLQTQKVHEKIVPLFAVEVLSEIQLSAGPGEGLYDEFETETVYSEDEYTGFDIATWISGNSMEPVYKDGEVALIRSTGFDHDGAVYALNWNGSLYIKKLYREEDGFRMVSINPDVAERFIPFEDEIRIVGKIVGHFMPVIGGLEHHHHHH | soluble
MGSDKIHHHHHHMITHRSDLNANYLLNALPRSEWESLAQHVELVRLRAGELLTDSGQRIVHVYFPTTSVVSLLSLLEDGATVEIAAVGNEGLVGVPVVTGGDTMPCRVEVRSPGLAYRIPARLLRSELPRTPTLQRVTLLYVQAMLTQIAQTAACNRHHSLNKQLCRWLLLAVDRLSSNELVITQQVIANMLGVRREGVTEAAGKLEDLGLIHHSRGHITVLDRCGLEKHSCECYKLVKREYDRLLPALAHA | not soluble
MKTLNNTHIGQIYYIHKIIGKNQAKLRDLGMISDKKITLISTDGENAIVKIDETRLALSSEFLEQIFVKEERSSEDIIGLAHLQVGQTGVVRMIDATSDIRRRLMDMGITRGTSVHLQKLAPLGDPLELRLRGYSLSLRKTDAEKIKVVLERLEHHHHHH | soluble
MHRGGQPLKKRRGSFKMAELDQLPDESSSAKALVSLKEGSLSNTWNEKYSSLQKTPVWKGRNTSSAVEMPFRNSKRSRLFSDEDDRQINTRSPKRNQRVAMVPQKFTATMSTPDKKASQKIGFRLRNLLKLPKAHKWCIYEWFYSNIDKPLFEGDNDFCVCLKESFPNLKTRKLTRVEWGKIRRLMGKPRRCSSAFFEEERSALKQKRQKIRLLQQRKVADVSQFKDLPDEIPLPLVIGTKVTARLRGVHDGLFTGQIDAVDTLNATYRVTFDRTGLGTHTIPDYEVLSNEPHETMPIAAFGQKQRPSRFFMTPPRLHYTPPLQSPIIDNDPLLGQSPWRSKISGSDTETLGGFPVEFLIQVTRLSKILMIKKEHIKKLREMNTEAEKLKSYSMPISIEFQRRYATIVLELEQLNKDLNKVLHKVQQYCYELAPDQGLQPADQPTDMRRRCEEEAQEIVRHANSSTGQPCVENENLTDLISRLTAILLQIKCLAEGGDLNSFEFKSLTDSLNDIKSTIDASNISCFQNNVEIHVAHIQSGLSQMGNLHAFAANNTNRD | soluble
MGSDKIHHHHHHMTVLIKEEDFIQSIADGIQFISYYHPVDYIRHLARAYEREESPAARDAMAQILTNSRMCAEGKRPLCQDTGIVNVFLKVGMNVRFDTQRTLQELCDEGVRRGYLNPDNPLRASVLDDPLFARKNTRDNTPCILHVELVPGDTVDVQVASKGGGSENKSKFVMLNPSDSLVDWVLKTVPTMGAGWCPPGMLGIGVGGTAEKAMLMAKQSLMEDIDMYELLARGPQSKLEELRIELYEKVNALGIGAQGLGGLTTVLDVKISTFPTHAASKPVAMIPNCAATRHAHFVLDGSGPARLDPPSLSEWPEVHWAPDYNKSRQVDLDTLTKEEVASWKPGQTLLLSGKMLTGRDAAHKRIQDMLSKGESLPVDFTNRVIYYVGPVDPVRDEVVGPAGPTTATRMDKFTDMMLAQTGLISMIGKSERGPVAIESIRKHGSAYLMAVGGAAYLVSKAIRNAKVLAFEDLGMEAIYEFDVKDMPVTVAVDSQGTSVHTTGPKEWQARIGKIPVAVA | not soluble
NDRFQWTSTLNGTYLKNRVERLSGGENDFINGSSPAAGMVDYATIIKPGEAIGTFWGYEWTGLDEKGHDTYTDVDGNQMIDGGDRKVIGKANPDFTLGWNNSLSYKNWDLNLFFNGSFGAKRLNLVRYTMASAEGNSRFVTLADAYLKGFDKIGSSATYPSLTEGGNNLQPVSTKWLENADFLRLENISLSYTFPKKTTGFADLRLTFSCQNLFTITGYKGMDPAGTTFSNSSVDVDAGIDMGAYPSPRTFTFGLRMNF | not soluble
MGSDKIHHHHHHMGPLSGITILDLTSVLMGPYATQTLADMGADVVKVESPEGDIVRHIGPGRTPGMGGMFLNTNRGKRSIVIDLKQNDGREALLRLAARANALIYNVRPQAMARLGLSYEQVAAVNPGIVYLGAFGYGQDGPYAAKPAYDDLIQGAAGVPTLLAAAGDGTPRYVPITIADRIVGLMAVNAMLGALMHQQRTGEGQRIDVPMFESMASFVLVDHLGGLTYEPPLDHGGYARLLSRSRKPYRTSDGYLCVLIYNDKQWRSFFEAIDRTDFLAQPRFANHAARTRHIDEIYEEIGAIFLTRTTAEWRELLERADIPVMPMHSMESILDDPHLRAVGFFETVEHPVEGRVRQMKVPSTWSATQPQPGGPAPTLGGNGRDILTEAGFSSAEIERLGHSKAVHLPD | not soluble
MGSDKIHHHHHHMNIQEAFNAAAVDYDSLRRILIPCFDDFYKTAVEIIPIERTAPIKVLDLGAGTGLYSGMVQSVFPNAELTLLDLAPEMLEKAKLRFSKMGKSPKILIGDYVETNLDDSYDLIISALSIHHLSDFDKELLYQRIYNFLNPGGIFVNADQVLGKTPDLEELYRQHWLDSVRAKGISEEDLKAAQKRMEYDRMATLEIQLHWLEAAGFQNVDCWYKNFSFAVFGGYRPTI | not soluble
MSQSLFSQPLNVINVGIAMFSDDLKKQHVEVTQLDWTPPGQGNMQVVQALDNIADSPLADKIAAANQQALERIIQSHPVLIGFDQAINVVPGMTAKTILHAGPPITWEKMCGAMKGAVTGALVFEGLAKDLDEAAELAASGEITFSPCHEHDCVGSMAGVTSASMFMHIVKNKTYGNIAYTNMSEQMAKILRMGANDQSVIDRLNWMRDVQGPILRDAMKIIGEIDLRLMLAQALHMGDECHNRNNAGTTLLIQALTPGIIQAGYSVEQQREVFEFVASSDYFSGPTWMAMCKAAMDAAHGIEYSTVVTTMARNGVEFGLRVSGLPGQWFTGPAQQVIGPMFAGYKPEDSGLDIGDSAITETYGIGGFAMATAPAIVALVGGTVEEAIDFSRQMREITLGENPNVTIPLLGFMGVPSAIDITRVGSSGILPVINTAIAHKDAGVGMIGAGIVHPPFACFEKAILGWCERYGV | soluble
MGSDKIHHHHHHMSSEAIFEHGYENIDLVREYDARYAGEDVHYETFARLANFFGRDMRPHWHDRYFQLHYLVTGRITLQLDEHFYSVRAPLFVLTPPSVPHTFFTNPDSDGHVLTVRQELIWPLVEKLWPGSGDAAMLQGICLSLEGMEHTLAALNHYWPIISLEFQQNKQGREILLQSLAQSIFTILLREAPPNDISTCSVRGEMCLFQKFNRLIDENYRQHLMVPEYATMLGMSESRLTELCRRFANQSPKRLIFERVSREARRLLLYSEQSINQIALDLGYKDPAYFARFFNRMMGCSPTQFRGR | not soluble
